Reference: the nanobody polyreactivity screen of Harvey et al. (2022)

Experiment: yeast display, Sf9 membrane polyspecificity reagent, FACS + sequencing; frameworks hold sequencing errors
Outline: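 Galactose induction of a Saccharomyces cerevisiae BJ5465 synthetic nanobody display library ran 36–48 hours. The cells were then stained for 1 hour at 4 °C with 10% biotinylated, detergent-solubilized Sf9 membrane reagent, pulled down on streptavidin microbeads and FACS-sorted into low and high (top ~1%) gates on expression and reagent-binding fluorescence. Labels for polyreactivity follow the gate of origin.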

| Sequence | polyreactivity (PSR sort gate) |
| --- | --- |
| QVQLVESGGGLVQAGGSLRLSCAASGSTFYNNAMGWYRQAPGKERELVAVITDSGGRTYYADSVKGRFTISRDNAKNTVYLQMNSLKPEDTAVYYCAVVAPGGGDDYWGQGTQVTVSS | low polyreactivity |
| QVQLVESGGGLVQAGGSLRLSCAASGGIFIFYAMGWYRQAPGKERELVAAISNVSSTNYADSVKGRFTISRDNAQNTVYLQMNSLKPEDTAVYYCNAVCVPSEYYSWGQGSQVTVSS | low polyreactivity |
| QVQLVESGGGLVQAGGSLRLSCAASGSTFRIYAMGWYRQAPGKERELVAAITSGGDTNYADSVKGRFTISRDNANNTVYLQMKSLKPEDTSVYYCAADGHSVYTELDYWGQGTQVTVSS | low polyreactivity |
| QVQLVESGGGLVQAGGSLRLSCAASGITFERNAMGWYRQAPGKERELVAAITGRGTSTYADSVKGRFTISRDNAKNTVYLQMNSLKPEDTAVYYCAAVGWFADFLFSDINGYYWGQGTQVTVSS | low polyreactivity |
| QVQLVESGGGLVQAGGSLRLSCAASGSIFPAYAMGWYRQAPGKERELVAAITRGGRTNYADSVKGRFTISRDNAKNSVYLQMNSLKPEDTAVYYCAKAVQGKYGYWGQGTQVTVSS | high polyreactivity |
| QVQLVESGGGLVQAGGSLRLSCAASGNTFRYYAMGWYRQAPGKERELLAAINSRGGTTSYADSVKGRFTISRDNAKNTVYLQMNSLKPEDTAVYYCNKYIRYPFKRYGYWGQGTQVTVSS | high polyreactivity |
| QVQLQESGGGLVQAGGSLRQSYAASGYIFPYLAMGWYRQAPGKEREFVAAIGRGSTNNYADSVKGRFTISRDNAKNTAYQQMNSLKPEDTAVYYCAGAASPLTRHLYWGQGNQVTVSS | low polyreactivity |
| QVQLVESGGGLVQAGGSLRLSCAASGSTFYIYAMGWYRQATGKERELVAAIDWNDGSTYYADSVKGRFTISRDNAKNTVYLEMHSLKPEDTAVYYCAAAIYIYRDGTYDYWGQGTQETVSS | high polyreactivity |
| HVQLVESGGGLVQAGGSLRLSCAASGSTFAGNAMGWYRQAPGKERELVAAITFSGGRTDYADSVKGRFTISRDNAKNTVYLQMNSLKPEDTAVYYCAAPADDTVHYQNYYWGQGTQVTVSS | low polyreactivity |
| QVQHVESGGGLVQAGGSLRLSCAASGYNFPYNPMGWYRQATGKEREFVAASTSSGGSTYYADSVKGRFTISRDNAKNTVYLQMNSLKPEDTAVYYCARVPLHRYGYWGQGTQVNVSS | high polyreactivity |
| QVQLVESGGGLVQAGGTLRLICAASGFTISKYAMGWYRQAPGKERELVAVISSGGLTNYADSVKGRFTISRDNAKNTVYLQMNSLKPEDSEVYYCAAIGWRTRSRFVYWGQGTQVTVAS | high polyreactivity |
| QVQLVESGRGLVLAGGSLRLSCAASGRIFRYYAMGWYRQATGKERELVAGISWRGSSTYYADSVKGRFTISRDNAKNTVYLQMNSLKPEDTAVYYCNRDQSYIPVTGGRFYYWGQGTQVTVSS | high polyreactivity |
| QDQLVESGGGLVQAGGSLRLSCAASGSIIYAYAMGWYRQAPGKERELVAAISWTGGSTYYADSVKGRFTISRDNAKNTVYLQMNCLKPEDTAVYYCAATYYQVASFYVTRYDYWGQGTQVTVSS | low polyreactivity |
| QVQLVESGGGLVQAGGSLRLSCAASGLTLQPYAMGWYRQAPGKERELVAAITSGGSTYYADSVKGRFTISRDNAKNTVYLQMNSLKPEDTAVYYCAAVGRHYYVKFDYWGQGTQVTVSS | low polyreactivity |
| QVQLVESGGGLVQAGGSLRLSCAASGGIFGYYTMGWYRQAPGKERELVAAITWRGSTYYADSVKGRFTISRDNAKNTVYLQMNSLKPEDTAVYYCAARYYSPYGYCGQGTQVTVSS | high polyreactivity |
| QVQLVESGGGLVQAGGSLRLSCAASGSTQNVYAMGWYRQATGKERELVAAIRWSGDTYYADSVKGRFTISRDNAKNTVYLQMNSLKPEDTAVYYCAAVPGTTYWQRFDYWGQGTQVTVSS | low polyreactivity |
| QVQLVESGGGLVQAGGSLRLSCAASGRIFRWYVMGWYRQAPGKERELVASISSGGITYYADSVKGRFTISRDNAKNTVYLQMNSLKPEDTAVYYCNARRQPYRTSGSEMGYWGQGTQVTVSS | high polyreactivity |
| QVQLVESGGGLVQAGGSLRLSCAAYGRIFGPYASGWYIQAPGKERELVAAITLSGGGTYADSVKGRFTISRDNAKNTVYLQMNSLKPEDTAVYYCAADSYRLLNSDTGEFEYNYWGQGSQVTVSS | low polyreactivity |
| QVQLQESGGGLVQACGSQRLSCAASGSISEGQDMGWYRRAPGKESEFVAGIAPCATTYYADSVKGRFTISRDNAKNSVYLQMNSLKPEDTAVYYCAARSVTETDHDYWGQCTQVTVSS | low polyreactivity |
| QVQLVESGGGLVQAGGSLRLSCAASGSTFVAYAKGWYRQAPGKETEWDASISGSGGTTNYADSVKGRFTISRDNAKNTVYLQMNSLKPEDTAVYYCARRYYSVKSRYALNSWGQGTQVTVSS | high polyreactivity |
| QVQLVETGGGLVQAGGSHRLSCAASGSIFSSYVMGWYRQAPGKERELVDAISSGGRTYYADSVKGRFTISRDNAKNTVYLQMNSLKPDETAVYYCAARTRRYPRPGLSPGNYWGQGTQVTVSS | high polyreactivity |
| QVQLVESGGGLVQAGGSLRLSCVASGSIFKQYAMGWYRQAPGKERELVAGISKTGGRTYYADSVKGRFTISRDNAKNTVYLQMNSLKPEDTAVYYCAAYFRSDYGYWGQGTQVTVSS | high polyreactivity |

| Sequence | polyreactivity (PSR sort gate) |
| --- | --- |
| QVQLVESGGGLVQAGGSLRLICAASGFTFPSYAMGWYRQAPGKEREFVAGITKGGGNTYYADSVKGRFTISRDNAKNTVYLQMNSLIPEDTAVYYCAADRSSFYWSHGTVYGYDYWGQGTQVTVSS | low polyreactivity |
| QVQLVESGGGLVQAGGSLRLSCAASGSTFDYYAMGWYRQAPGKERDLVAGITSDGSTDYADSVKGRFTISRDNAKNTVYLQMNSLKPEDTAVYYCAVDGDPVFYTTYYYSYYYWGQGTQVTVSS | low polyreactivity |
| QVQLVESGGGLVQAGGSLRLSCAASGRISLYYTMGWYRQAPGKEREFVAAISSTGGSTYYADSVKGRFTISRDNAKNTVYLQMNSLKPEDTAVYYCAKAYHATSDYWGQGTQVTVSS | low polyreactivity |
| QVQLVETGGGLVQASGSLRLSSAASGRIFTRYAMGWYRQAHGKERELVPAITRGGSTYYADSVKGRFTISRDNAKNTVYLQMNSLKPEDTAVYYCAADWFGISVVRDPFDHWGQGTQVTVSS | high polyreactivity |
| QVQLVESGGGLVQAGGSLRLSCAASGSIFSYNVIGWYRQAPGKEREMVATITVDGTSTYYADSVKGRFTISRDNAKNTVYLQMNSLKPEDTAVYDCAADETASFTQEYEEMEYWGQGTQVTVSS | low polyreactivity |
| QVHLVESGGRLVQAGGSLRLSCAASGSTFGYYAMVWYRHAPGKDRELVAAITSGASTYYADSVKGRFTISRDNAKKTVYLQMNSLKPEDTAVYYCAARRWRKYYSGYNYWGQGTQVTVSA | high polyreactivity |
| QVQLVESGGGLVQAGGSLRLSCAASGSTFRIYAMGWYRQAPGKERELVAGITRRGGSTFYADSVKGRFTISRDNAKNTVYLQMNSLKPEDTAVYYCAARFRGGMDYWGQGTQVTVSS | high polyreactivity |
| QVQLVESGGGLVQAGGSLRLSCAASGIIFSRNVMGWYRPAPGKERELVAVISGSGGSTYYADSVKGRFTISRDNAKNTVYLQMNSLKPEDSAVYYCAASYEYLWGYDYEYWGQGTQVTVSS | high polyreactivity |
| QVQLVESGGGLVQAGGSLRLSCAASGFIFRQYAMGWYRQAPGKERELVAAISTGGGRTYYADSVKGRFTISRDNAKNTVYLQMNSLKPEDTAVYYCAVYYYKTYDYWGQGTQVTVSS | high polyreactivity |
| QVQLVESGGGLVQAGGSLRLSCAASGSIFSENTMGWYRQAPGKKRELVADITSGGSTNYADSVKGRFTISRDNAKNTVYLQMNSLKPEDTAVYYCAADYNGEYDYWGQGTQVTVSS | low polyreactivity |
| QVQLVESGGGFVQAGGSLRLSCAASGFIFWLNAMGWYRQAPGKERELVAASSIGGRTNYADSVKGRFTISRDNAKNTVYLQMNSLTPEDTAVYFCNNDYRSVYKGRGFDYWGQGTQVTVSS | low polyreactivity |
| QVQLVESGGGLVQAGGSLRLSCAASGFTFYWYAMGWYRQAPGKEREFVAAIDQSGGSTYYADSVKGRFTISRDNAKNTVYLQMNSLKPEDTAVYYCAARYILWDGDSWTEFDYWGQGTQVTVSS | low polyreactivity |
| QVQLVESGGGLVQAGGSLRLSCAASGFTFGWYDMGWYRQAPGKERELVASISWSGSSTYYADSVKGRFTISRDNAKNTVYLQLNSLKPEDTAVYYCNDVSVDYVNWYWYDYWGQGTQVTVSS | high polyreactivity |
| QVQLVESGGGLVQAGGSLRLSCAASGITFHRNTMGWYRQAPGTETELVDSITSGGITYYADSVKGSFTISRDNEKNTVYLQMNSLKPEDTAVYYCAAEGYWTYWVARSDIPYFYWGQGSQVTVSS | high polyreactivity |
| QVQLVESGGGLVQAGGSLRLSCAASGSTFFIYAMGWYRPAPGKERELVAAISWRDGSTYYADSVKGRFTISRDNAKNTVYLQMNSLKPEDTAVYYCAADYLLPWGIELDYWGQGTQVTVSS | high polyreactivity |
| QVQLVESGGGLVQAGGSLRLSCAASGRIFDYYDLGWYRQAPRKERELVAAITSSGTSTYYADSVKGRFTISRDNAKNTVYLQMNSLKPEDTAVYYCNARSIRPWGENGYWGQGTQVTVSS | high polyreactivity |
| QVQLIESGGVLVQAGGSLRLSCAASGSTFTINVMGWYRQAPGKERELVAAINGGGRTNYADSVKGRFTISRDNAKNTVYLQINSLKPEDTAVYYCAADGLSNVRQMDYWGQGTQVTVSS | low polyreactivity |
| QVQLVESGGGLVQAGGSLRLSCAASGSIFRTNAMGWYRQAPGKERELVAAITGRGGSTYYADSVKGRFTISRNNAKNTVYLQMNSLKPEDTAVYYCAADTWYGYRYKYDYWGQGTQVTVSS | high polyreactivity |
| QVQLVESGGGLVQAGGSLRLSCAASGGTFRSNAMGWYRQAPGKERELVAASTNYADSVKGRFTISRDNAKNTVYLQMNSLKPEDTAVYYCAAGPTDSQSGMDYWGQGTQVTVSS | low polyreactivity |
| QVQLVESGGGLVQAGGSLRLSFAASGRTFTWNVMGWYRQAPGKERELVAAITTDDRTYADSVKGRFTISRDNAKNTVYLQMNSLKPEDTAVYYCATVVAWSSRPVGEDYWGQGTQVTVSS | low polyreactivity |
| QVQLVESGGGLVQAGGSLRLSCAASGTIFYVYAMGWYRQAPGKERELVDAINTSGGSTFYADSVKGRFTISRDNAKNTVYLHMKSLKPEDTAVYYCAAERYRYRSTDTMGYWGQGSQVTVSS | low polyreactivity |
